The values below come from paper PMC5847621 (2018).

Broadly, the Kd is a measure of binding affinity in units of concentration. A higher Kd goes with weaker binding.

The test addresses T1, VSV Gth, soluble form of the ectodomain of VSV glycoprotein G (residues 1-422) (Vesicular stomatitis virus (Mudd-Summer …, UniProt P0C2X0 17-438)).
T1 chain: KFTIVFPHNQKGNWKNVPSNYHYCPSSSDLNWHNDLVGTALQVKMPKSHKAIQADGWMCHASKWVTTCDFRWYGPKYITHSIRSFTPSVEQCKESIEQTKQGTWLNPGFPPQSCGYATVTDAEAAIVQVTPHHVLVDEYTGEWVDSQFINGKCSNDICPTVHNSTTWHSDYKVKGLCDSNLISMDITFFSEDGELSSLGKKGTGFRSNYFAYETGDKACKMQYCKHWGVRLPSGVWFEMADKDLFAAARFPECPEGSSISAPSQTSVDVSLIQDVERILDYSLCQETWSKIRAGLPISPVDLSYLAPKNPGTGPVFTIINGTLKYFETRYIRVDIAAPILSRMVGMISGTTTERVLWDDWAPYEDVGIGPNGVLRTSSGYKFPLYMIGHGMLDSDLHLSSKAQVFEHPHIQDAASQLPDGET
Nature of the test: ITC.

B1: LDL-R CR3 domain, isolated (GST cleaved off) (domain or fragment)
chain: not shown
For B1, the Kd stood at 3.75 µM.
